B1: Gamma-crystallin S, residues 96 to 176; numbered along this chain, P22914 (parent)
chain: IQIFEKGDFSGQMYETTEDCPSIMEQFHMREIHSCKVLEGVWIFYELPNYRGRQYLLDKKEYRKPIDWGAASPAVQSFRRI

Variants of: B1
Test: abundance fitness (aPCA) (normalised: wild type 0, dead -1); higher = more abundant; growth selection in yeast, the domain comes from the species named
Conditions: Homo sapiens

Abundance fitness: each site, then its substitutions
G7: Q -0.099, M 0.012, I 0.034, P 0.007, V -0.012, A 0.043, W -0.041, N -0.16, T -0.03, R 0.052, H 0.013, Y -0.025, E -0.027, C -0.367, S -0.01, D -0.019, F 0.084, K 0.079
G11: C 0.066, A 0.041, E -0.01, D -0.009, L -0.137, R -0.135, M 0.062, I -0.372, Q -0.003, S 0.06, P 0.012, N -0.002, H -0.021, F -0.294, K 0.105, Y -0.094, W -0.171, V -0.208
Q12: H -0.04, S 0.023, Y 0.035, E -0.053, D 0.012, V 0.005, N 0.09, L -0.014, G 0.033, C -0.093, F -0.053, R 0.025, M 0.001, P 0.013, A -0.02, T 0.053
T17: A 0.022, N -0.02, E -0.069, C 0.027, R -0.012, S -0.068, Y -0.352, W 0.021, M -0.059, Q -0.005, L 0.022, V -0.031, I 0.037, F -0.007, K 0.074, P 0.075, G -0.013, D -0.051
Y14: H 0.034, W -0.056, G 0.028, D -0.01, E 0.113, M -0.166, R -0.004, K -0.009, P -0.993, I -0.003, Q 0.128, C -0.027, V -0.002, T 0.086, F -0.011, N 0.063, A 0.049, S 0.07
S10: W -0.047, C -0.081, F -0.091, I -0.059, N 0.069, M -0.033, T -0.157, R -0.018, G -0.004, D -0.12, Q 0.022, L 0.005, V -0.003, Y 0.068, K 0.006, E 0.013, A -0.039, P -0.733
T16: A 0.026, E 0.046, P 0.102, H -0.003, L 0.049, V -0.035, G 0.006, F 0.148, M 0.061, Q -0.108, W 0.078, K -0.129, D -0.002, N 0.024, R 0.003, I -0.055, C 0.012, Y 0.018
S22: H -0.01, G -0.015, P -0.907, T -0.08, M -0.094, R -0.016, L -0.022, C 0.02, Q -0.019, K 0.062, F -0.035, Y 0.142, V 0.017, W 0.082, I 0.033, A 0.023, E -0.034, N 0.001
P21: F 0.075, R -0.106, S 0.019, L -0.002, T -0.012, N -0.015, V 0.009, I -0.053, W 0.037, K -0.016, G 0.004, E -0.028, Q 0.023, Y -0.109, A -0.043, C -0.011, M -0.057, D -0.063
D19: M -0.097, A -0.005, N -0.193, P -0.237, G -0.035, F -0.116, W -0.024, L -0.124, Y 0.009, H 0.143, Q 0.181, E -0.018, I -0.144, V -0.038, R -0.015, K -0.114, T -0.059, C -0.003
C20: G -0.352, E -0.144, W -0.065, M -0.008, N -0.134, S -0.054, L -0.142, T -0.086, Y -0.035, I 0.023, K -0.027, D -0.754, Q -0.002, R -0.235, F -0.222, V -0.087, H -0.398, P -1.04, A -0.004
D8: Y 0.078, N 0.074, F 0.066, R 0.081, L 0.074, S 0.093, K 0.162, T 0.063, A 0.038, V 0.039, P -0.012, H 0.088, C 0.111, I 0.025
K6: D 0.015, Y -0.033, Q -0.056, A 0.007, H -0.02, E 0, V 0.033, I -0.009, L -0.058, M 0.049, T 0.007, F 0.099, P -1.1, R -0.047, S 0.085, G 0.004
M24: A -0.054, K 0.335, I -0.017, E -0.052, D -0.11, Q -0.097, P -0.099, L 0.002, C -0.016, H -0.099
F9: T -0.051, A -0.064, Y -0.008, R -0.126, W -0.018, G -0.035, K -0.095, I -0.009, C 0.054, E -0.18, V -0.12, D -0.409, S -0.068, P -0.481, Q 0.027, N 0.068, M 0.061, H 0.067
E18: P -0.067, F -0.007, T -0.046, Y -0.032, G 0.038, M -0.066, L -0.021, D -0.153, K 0.017, R -0.028, W 0.014, V 0.002, I 0.079, Q 0.009, A -0.087, N 0.072, S 0.016, H -0.039, C 0.006
E5: V 0.051, W 0.006, Q 0.12, T -0.07, Y 0.083, R -0.002, S -0.046
E15: R -0.057, K 0.147, C -0.137, G -0.044, H -0.095, Y 0.115, L -0.078, D -0.046, V -0.013, F -0.05, I -0.183, P -0.038, T -0.064, M -0.18, A -0.011, Q 0.018, W -0.062
M13: H 0.005, T 0.027, G -0.041, C -0.012, P 0.027, S -0.023, A -0.011, Q 0.019, Y 0.094, I 0.062, D -0.032, V -0.017, W -0.048, F -0.04, E 0.028, R -0.01, K -0.032, N -0.083
I23: E -0.945, R -0.28, N -0.041, G -0.142, K -0.588, H -0.201, M -0.041, P 0.02, Y 0.024, V 0.004, T -0.033, Q -0.398, C -0.031, S -0.038, F 0.001, L -0.152, A 0, W 0.014
